Experimental data published in PMC9958131 (Nature Communications, 2023).

System: PAD2 and PAD4
Test: Citrullination site mapping of fibrinogen and vimentin by trypsin digestion and mass spectrometry (protein-level sheet, one search over native, PAD2-cit and PAD4-cit samples)
Assay type: biochemical, human
Settings: modified residues found per protein; Deamidated [R..] = deamidated (citrullinated) arginine positions; trypsin digest, Sequest HT; not split by sample (native, PAD2-citrullinated, PAD4-citrullinated fibrinogen and vimentin)
Description: Description: Raw mass spectrometry data for proteolytic mapping of fibrinogen, vimentin, and hnRNP A2/B1 by cathepsins B, S, and H (sheets 1-6); citrullination site mapping of fibrinogen and vimentin by trypsin digestion (sheets 7-8); and the natural antigen processing assay with native, PAD2-citrullinated (PAD2-cit), and PAD4-citrullinated (PAD4-cit) fibrinogen (sheets 9-11).

Molecule | Modifications
K7ERE3 (protein) MSLRLQSSSASYGGGFGGGSCQLGGGRGVSTCSTRFVSGGSAGGYGGGVSCGFGGGAGSGFGGGYGGGLGGGYGGGLGGGFGGGFAGGFVDFGACDGGLLTGNEKITMQNLNDRLASYLEKVRALEEANADLEVKIRDWHLKQSPASPERDYSPYYKTIEELRDKILTATIENNRVILEIDNARLAADDFRLKYENELALRQSVEADINGLRRVLDELTLSKTDLEMQIESLNEELAYMKKNHEEEMKEFSNQVVGQVNVEMDATPGIDLTRVLAEMREQYEAMAERNRRDAEEWFHTKSAELNKEVSTNTAMIQTSKTEITELRRTLQGLEIELQSQLSMKAGLENTVAETECRYALQLQQIQGLISSIEAQLSELRSEMECQNQEYKMLLDIKTRLEQEIATYRSLLEGQDAK | Deamidated [R27; R212]
P01023 (protein) MGKNKLLHPSLVLLLLVLLPTDASVSGKPQYMVLVPSLLHTETTEKGCVLLSYLNETVTVSASLESVRGNRSLFTDLEAENDVLHCVAFAVPKSSSNEEVMFLTVQVKGPTQEFKKRTTVMVKNEDSLVFVQTDKSIYKPGQTVKFRVVSMDENFHPLNELIPLVYIQDPKGNRIAQWQSFQLEGGLKQFSFPLSSEPFQGSYKVVVQKKSGGRTEHPFTVEEFVLPKFEVQVTVPKIITILEEEMNVSVCGLYTYGKPVPGHVTVSICRKYSDASDCHGEDSQAFCEKFSGQLNSHGCFYQQVKTKVFQLKRKEYEMKLHTEAQIQEEGTVVELTGRQSSEITRTITKLSFVKVDSHFRQGIPFFGQVRLVDGKGVPIPNKVIFIRGNEANYYSNATTDEHGLVQFSINTTNVMGTSLTVRVNYKDRSPCYGYQWVSEEHEEAHHTAYLVFSPSKSFVHLEPMSHELPCGHTQTVQAHYILNGGTLLGLKKLSFYYLIM | Deamidated [R645; R704; R715; R719; R1401; R1407]
E7ESP9 (protein) MSYTLDSLGNPSAYRRVTETRSSFSRVSGSPSSGFRSQSWSRGSPSTVSSSYKRSMLAPRLAYSSAMLSSAESSLDFSQSSSLLNGGSGPGGDYKLSRSNEKEQLQGLNDRFAGYIEKVHYLEQQNKEIEAEIQALRQKQASHAQLGDAYDQEIRELRATLEMVNHEKAQVQLDSDHLEEDIHRLKERFEEEARLRDDTEAAIRALRKDIEEASLVKVELDKKVQSLQDEVAFLRSNHEEEVADLLAQIQASHITVERKDYLKTDISTALKEIRSQLESHSDQNMHQAEEWFKCRYAKLTEAAEQNKEAIRSAKEEIAEYRRQLQSKSIELESVRGTKESLERQLSDIEERHNHDLSSYQDTIQQLENELRGTKWEMARHLREYQDLLNVKMALDIEIAAYRKLLEGEETRFSTFAGSITGPLYTHRPPITISSKIQKPKVEAPKLKVQHKFVEEIIEETKVEDEKSEMEEALTAITEELAVSMKEEKKEAAEEKEEEPE | Deamidated [R382]
P02533 (protein) MTTCSRQFTSSSSMKGSCGIGGGIGGGSSRISSVLAGGSCRAPSTYGGGLSVSSSRFSSGGACGLGGGYGGGFSSSSSSFGSGFGGGYGGGLGAGLGGGFGGGFAGGDGLLVGSEKVTMQNLNDRLASYLDKVRALEEANADLEVKIRDWYQRQRPAEIKDYSPYFKTIEDLRNKILTATVDNANVLLQIDNARLAADDFRTKYETELNLRMSVEADINGLRRVLDELTLARADLEMQIESLKEELAYLKKNHEEEMNALRGQVGGDVNVEMDAAPGVDLSRILNEMRDQYEKMAEKNRKDAEEWFFTKTEELNREVATNSELVQSGKSEISELRRTMQNLEIELQSQLSMKASLENSLEETKGRYCMQLAQIQEMIGSVEEQLAQLRCEMEQQNQEYKILLDVKTRLEQEIATYRRLLEGEDAHLSSSQFSSGSQSSRDVTSSSRQIRTKVMDVHDGKVVSTHEQVLRTKN | Deamidated [R125; R194; R282; R336; R439]; Met-loss+Acetyl [N-Term]
P13647 (protein, UniProt P13647 1-590, looked up, full-length) MSRQSSVSFRSGGSRSFSTASAITPSVSRTSFTSVSRSGGGGGGGFGRVSLAGACGVGGYGSRSLYNLGGSKRISISTSGGSFRNRFGAGAGGGYGFGGGAGSGFGFGGGAGGGFGLGGGAGFGGGFGGPGFPVCPPGGIQEVTVNQSLLTPLNLQIDPSIQRVRTEEREQIKTLNNKFASFIDKVRFLEQQNKVLDTKWTLLQEQGTKTVRQNLEPLFEQYINNLRRQLDSIVGERGRLDSELRNMQDLVEDFKNKYEDEINKRTTAENEFVMLKKDVDAAYMNKVELEAKVDALMDEINFMKMFFDAELSQMQTHVSDTSVVLSMDNNRNLDLDSIIAEVKAQYEEIANRSRTEAESWYQTKYEELQQTAGRHGDDLRNTKHEISEMNRMIQRLRAEIDNVKKQCANLQNAIADAEQRGELALKDARNKLAELEEALQKAKQDMARLLREYQELMNTKLALDVEIATYRKLLEGEECRLSGEGVGPVNISVVTSSVSSGYGSGSGYGGGLGGGLGGGLGGGLAGGSSGSYYSSSSGGVGLGGGLSVGGSGFSASSGRGLGVGFGSGGGSSSSVKFVSTTSSSRKSFKS | Deamidated [R37; R73; R187; R227]
C9JU00 (protein) MIDAATLKSRKMLEEIMKYEASILTHDSSIRYLQEIYNSNNQKIVNLKEKVAQLEAQCQEPCKDTVQIHDITGKDCQDIANKGAKQSGLYFIKPLKANQQFLVYCEIDGSGNGWTVFQKRLDG | Deamidated [R31]
Q9Y2J8 (protein) MLRERTVRLQYGSRVEAVYVLGTYLWTDVYSAAPAGAQTFSLKHSEHVWVEVVRDGEAEEVATNGKQRWLLSPSTTLRVTMSQASTEASSDKVTVNYYDEEGSIPIDQAGLFLTAIEISLDVDADRDGVVEKNNPKKASWTWGPEGQGAILLVNCDRETPWLPKEDCRDEKVYSKEDLKDMSQMILRTKGPDRLPAGYEIVLYISMSDSDKVGVFYVENPFFGQRYIHILGRRKLYHVVKYTGGSAELLFFVEGLCFPDEGFSGLVSIHVSLLEYMAQDIPLTPIFTDTVIFRIAPWIMTPNILPPVSVFVCCMKDNYLFLKEVKNLVEKTNCELKVCFQYLNRGDRWIQDEIEFGYIEAPHKGFPVVLDSPRDGNLKDFPVKELLGPDFGYVTREPLFESVTSLDSFGNLEVSPPVTVNGKTYPLGRILIGSSFPLSGGRRMTKVVRDFLKAQQVQAPVELYSDWLTVGHVDEFMSFVPIPGTKKFLLLMASTSACYKL | Deamidated [R5; R8; R54; R68; R78; R157; R187; R193; R225; R232; R344; R347; R373; R428; R441; R442; R546; R552; R580; R582; R652; R653]
P02538 (protein) MASTSTTIRSHSSSRRGFSANSARLPGVSRSGFSSVSVSRSRGSGGLGGACGGAGFGSRSLYGLGGSKRISIGGGSCAISGGYGSRAGGSYGFGGAGSGFGFGGGAGIGFGLGGGAGLAGGFGGPGFPVCPPGGIQEVTVNQSLLTPLNLQIDPTIQRVRAEEREQIKTLNNKFASFIDKVRFLEQQNKVLETKWTLLQEQGTKTVRQNLEPLFEQYINNLRRQLDSIVGERGRLDSELRGMQDLVEDFKNKYEDEINKRTAAENEFVTLKKDVDAAYMNKVELQAKADTLTDEINFLRALYDAELSQMQTHISDTSVVLSMDNNRNLDLDSIIAEVKAQYEEIAQRSRAEAESWYQTKYEELQVTAGRHGDDLRNTKQEIAEINRMIQRLRSEIDHVKKQCANLQAAIADAEQRGEMALKDAKNKLEGLEDALQKAKQDLARLLKEYQELMNVKLALDVEIATYRKLLEGEECRLNGEGVGQVNISVVQSTVSSGYGGA | Deamidated [R182; R222; R326]
